{"source": "patent US8703460B2", "about": "“Method for the production of an additive for the enzymatic decomposition of mycotoxins, additive, and use thereof” (Erber Aktiengesellschaft, priority 2008, dated 2014)", "key": {"piglets": {"system": "piglets", "assay": "Feeding test with piglets", "type": "in vivo, pigs", "settings": "Positive control: 4-5.5 ppm fumonisin B1 in feed, no enzyme", "protocol": "The test was performed in a test stable with 12 stalls for 10 animals each. The stable was equipped with a slatted floor, pan troughs and a computer-controlled feeding system. The automats were arranged along the stall walls. Every day, the stable climate was automatically recorded, and the temperature was set according to the standard recommendations for piglet breeding.\nFor this test, 120 mixed-sex weaned pigs (age: about 4 weeks, average setting weight: 8.21 kg) were used. Each piglet was earmarked and individually weighed. The 120 piglets were randomly distributed among 12 stalls. All piglets came from the Austrian Breeding Program ÖHYB (=(large white×landrace)×Pietrain).\nImmediately upon weaning, the piglets were fed with a starter feed for two days, after this settling-in period the changeover to the test feed took place. Feeding was effected in two phases: Weaning phase days 1-14, breeding phase days 15-42. The test feed was mixed individually per stall via the spotmix feeding installation and allotted in dry form twice a day as a function of the number of piglets, weight development and feed consumption. Water was available ad libitum. The 12 stalls were divided into four different application groups at three repetitions each and received the following admixtures in the above-described feed: […]"}, "[1]": {"assay": "Catalytic activity of HFB1 aminotransferase in E. coli lysate", "type": "biochemical", "settings": "25° C.; for degradation of the hydrolyzed fumonisin to 2-keto-HFB1: cosubstrate added (α-keto acid e.g. pyruvic acid, or oxalacetate); for reduction of the hydrolyzed FB1 concentration: no cosubstrate, 50 mM sodium phosphate buffer", "protocol": "Sequences ID Nos. 18 and 24 were cloned using standard procedures and expressed in E. coli under the control of a bacteriophage T7 promoter. The bacterial cells were collected, resuspended in 50 mM sodium phosphate buffer and lyzed under ultrasonic action. Hydrolyzed fumonisin was added, and the samples were incubated at 25° C. Samples were taken at time intervals and analyzed by HPLC-MS/MS. No reduction of the hydrolyzed FB1 concentration was observed. […] This substance is totally harmless for mammals."}, "[2]": {"type": "biochemical", "settings": "corn mash after carboxylesterase treatment; FIG. 5", "protocol": "Samples of corn mash for the production of bioethanol were taken and incubated at 30 to 65° C. under stirring, the degradation of fumonisin B1 having been investigated after the addition of 770 units of carboxylesterase ID No. 9 per cubic meter of mash under stirring (stirring time in minutes). Samples were inactivated by boiling-up after having been taken and subsequently centrifuged for analysis, and an aliquot of the supernatant was evaporated. The residue was taken up in 200 μl sample buffer containing C^13-labelled internal fumonisin standard, shaken for 1.5 min, centrifuged off, and then subjected to LC-MS-analysis."}}, "data": [{"molecule": "CCCC[C@@H](C)[C@@H](OC(=O)C[C@@H](CC(=O)O)C(=O)O)[C@H](C[C@@H](C)C[C@H](O)CCCC[C@@H](O)C[C@H](O)[C@H](C)N)OC(=O)C[C@@H](CC(=O)O)C(=O)O", "note": "[fumonisin B1]", "values": [{"measurement": "respiratory problems observed", "setting": "piglets", "value": "almost half of the animals"}, {"measurement": "Final weight (average, kg)", "setting": "piglets; 42 days", "value": 24.77, "unit": "kg"}]}, {"molecule": "aminotransferase ID No. 25: HFB1 aminotransferase encoded by sequence ID No. 24 (protein, listed as Caulobacter sp., Seq ID 25) MELSRQRDQALRERAQAVIPGGMYGHESTYLMPEGTPQFFSRGKGARLWDADGNEYVDYMCAYGPNLLGYGFEPVEAAAAAQQARGDTLTGPSEVMVQLAEDFVAQISHADWAMFCKNGTDATSMAMVIARAHTGRKTILCAKGAYHGAAPWCTPILAGTLPEDRAFVVYYDYNDAQSLVDAFEAHQDDVAAIFATPHRHEVFSDQIDPDPEYAASVRALCDKSGALLVVDEVRAGFRIARDCSWAKIGVAPDLSTWGKCFANGYPISAVLGGEKVRSAAKAVYVTGSFWFSATPMAAAVETLKQIRETDYLERINAAGTRLREGLQQQAAHNGFTLRQTGPVSMPQVLFEEDPDFRVGYGWVRECLKRGVYFSPYHNMFLSAAHSEADLAKTLAATGDAFVELRAKLPSLEIHQPLLALRAA", "values": [{"measurement": "degradation of the hydrolyzed fumonisin to 2-keto-HFB1", "setting": "[1]", "value": "complete degradation"}, {"measurement": "reduction of the hydrolyzed FB1 concentration", "setting": "[1]", "value": "No reduction"}]}, {"molecule": "aminotransferase ID No. 19: HFB1 aminotransferase encoded by fumI (sequence ID No. 18) (protein, listed as Sphingopyxis sp., Seq ID 19 (FumI)) MANGTRQKDLRERAERVIPGGMYGHESTRLLPPEFPQFFRRALGARIWDADEQPYIDYMCAYGPNLLGYRQSEIEAAADAQRLLGDTMTGPSEIMVNLAEAFVGMVRHADWAMFCKNGSDATSTAMVLARAHTGRKTILCAKGAYHGASPWNTPHTAGILASDRVHVAYYTYNDAQSLSDAFKAHDGDIAAVFATPFRHEVFEDQALAQLEFARTARKCCDETGALLVVDDVRAGFRVARDCSWTHLGIEPDLSCWGKCFANGYPISALLGSNKARDAARDIFVTGSFWFSAVPMAAAIETLRIIRETPYLETLIASGAALRAGLEAQSQRHGLELKQTGPAQMPQIFFADDPDFRIGYAWAAACLKGGVYVHPYHNMFLSAAHTVDDVTETLEATDRAFSAVLRDFASLQPHPILMQLAGA", "values": [{"measurement": "degradation of the hydrolyzed fumonisin to 2-keto-HFB1", "setting": "[1]", "value": "complete degradation"}, {"measurement": "reduction of the hydrolyzed FB1 concentration", "setting": "[1]", "value": "No reduction"}, {"measurement": "degradation of hydrolyzed fumonisin HFB1", "setting": "[2]", "value": "completely degraded"}]}]}
